Reference: article PMC8808184 (The Journal of Biological Chemistry, 2021)

T1: FN1–FN3 region of CNTN5 titrated against human APLP1(E1) and human APLP2(E1) ( (chicken, human, mouse and …, UniProt O94779 673-972))
T1 construct: contactin 5, FN1–FN3; source: E. coli BL21(DE3), purified (IMAC, 3C protease cleavage, ion exchange, gel filtration)
T1 sequence (looked up): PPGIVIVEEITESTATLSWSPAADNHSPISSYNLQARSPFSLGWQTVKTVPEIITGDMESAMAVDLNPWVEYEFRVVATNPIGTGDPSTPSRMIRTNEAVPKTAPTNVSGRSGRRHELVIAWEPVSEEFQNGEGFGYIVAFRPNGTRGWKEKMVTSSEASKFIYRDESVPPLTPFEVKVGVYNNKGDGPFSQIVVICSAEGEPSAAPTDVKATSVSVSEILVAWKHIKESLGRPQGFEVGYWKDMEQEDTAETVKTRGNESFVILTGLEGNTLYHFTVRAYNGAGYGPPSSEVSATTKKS

B1: FN1–FN3 region of human CNTN4 (domain or fragment, UniProt Q8IWV2 599-899, looked up)
chain: PPEAVTIDEITDTTAQLSWRPGPDNHSPITMYVIQARTPFSVGWQAVSTVPELIDGKTFTATVVGLNPWVEYEFRTVAANVIGIGEPSRPSEKRRTEEALPEVTPANVSGGGGSKSELVITWETVPEELQNGRGFGYVVAFRPYGKMIWMLTVLASADASRYVFRNESVHPFSPFEVKVGVFNNKGEGPFSPTTVVYSAEEEPTKPPASIFARSLSATDIEVFWASPLEKNRGRIQGYEVKYWRHEDKEENARKIRTVGNQTSTKITNLKGSVLYHLAVKAYNSAGTGPSSATVNVTTRKP
notes: human contactin 4, FN1–FN3; source: E. coli BL21(DE3), purified (IMAC, 3C protease cleavage, ion exchange, gel filtration)
B2: E1 domain of human APLP2 (domain or fragment, UniProt Q06481 46-205, looked up)
chain: AVAEPQIAMFCGKLNMHVNIQTGKWEPDPTGTKSCFETKEEVLQYCQEMYPELQITNVMEANQRVSIDNWCRRDKKQCKSRFVTPFKCLVGEFVSDVLLVPEKCQFFHKERMEVCENHQHWHTVVKEACLTQGMTLYSYGMLLPCGVDQFHGTEYVCCPQ
modifications: biotin (EZ-Link NHS-PEG4-Biotin, 1:1 molar ratio)
notes: human amyloid beta precursor like protein 2, E1 domain; host and tags are those told for the E1 domains in general; source: E. coli Origami2(DE3), purified (as told for the E1 domains)

Legend:
Assay in all cases: BLI; biotinylated E1 domain ([…] nM) immobilised on streptavidin tips, CNTN FN1–FN3 in solution; room temperature; 150 mM NaCl, 10 mM Na-Hepes pH 7.5, 1 mg/ml BSA, 0.02% Tween-20; BLItz or Octet K2; KD from the signal at equilibrium
Conditions in all cases: both partners purified
E1 domain of human APLP2 = biological target: B2
[1] = biological target: B1
[2] = biological target: T1, FN1–FN3 region of CNTN5 titrated …

fold decrease in affinity against human CNTN4 with APLP1 (E1 domain of human APLP2) [fold] | Kd [1] [µM] | Kd [2] [µM] | Binder
4 |  |  | B1
 | 6.3 | ~38 | B2
